According to patent US20260242497A1:

Assays:
[1] = target: human FcRn (human) (UniProt P55899); assay: SPR, Biacore 8K, CM5 chip, antibody immobilised, human FcRn as analyte, pH 6.0
[2] = target: human FcRn (human) (UniProt P55899); assay: SPR, Biacore 8K, CM5 chip, antibody immobilised, human FcRn as analyte, pH 6.0; average of multiple experiments

| Fold Increase (FI) relative to Rituximab [1] | Kd [1] | Kd [2] | Substance |
| --- | --- | --- | --- |
| 10.5 fold | 202 nM | – | APG-777 (Apogee) (antibody) |
| – | 2190 nM | – | AVTX-009 (Avalo) (antibody) |
| – | – | 2130 nM | Rituximab (antibody) |
| 1.1 fold | 1950 nM | – | CALY-002 (Calypso/Novartis) (antibody) |
